Earlier results in PMC7911750.

Molecular target: NKp30-Ig ECD (Homo sapiens) (UniProt O14931)
Sequence of UniProt O14931 (O14931 19-135): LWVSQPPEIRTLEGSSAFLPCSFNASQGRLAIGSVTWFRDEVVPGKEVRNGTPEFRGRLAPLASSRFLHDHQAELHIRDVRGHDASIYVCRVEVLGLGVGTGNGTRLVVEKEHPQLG

In the case of pp65 (from UniProt P06725), the Kd is given as 10 nM.
